Values belong to the molecule of their own block, whether it stands above or below them.
Columns and labels:
DMC1 ΔN = target: T1, DMC1 ΔN (Homo sapiens, UniProt Q14565); assay: Amylose pull-down of DMC1 ΔN with MBP-BRCA2 fusions; assay type: binding; conditions: recombinant co-expression with MBP-BRCA2 fusion
T1 construct: DMC1 ΔN (83-340) were cloned into pHAT4; His6 (TEV-cleavable) (N, cleaved yes); made in house; host or cells: E. coli BL21 (DE3)
T1 sequence (Q14565 83-340): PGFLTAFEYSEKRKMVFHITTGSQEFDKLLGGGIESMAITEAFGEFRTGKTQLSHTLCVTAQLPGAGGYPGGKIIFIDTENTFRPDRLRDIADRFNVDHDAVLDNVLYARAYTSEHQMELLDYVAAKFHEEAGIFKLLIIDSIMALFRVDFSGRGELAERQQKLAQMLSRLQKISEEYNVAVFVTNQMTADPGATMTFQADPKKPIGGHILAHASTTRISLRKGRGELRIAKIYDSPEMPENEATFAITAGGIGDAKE
Excerpt: (§1) For affinity pulldown experiments, MBP-fusions of BRCA2 fragments (Ex14, amino-acids 2387-2420, Ex14-Tr, amino acids 2401-2414, Ex27, amino acids 3270-3315, BRC4, amino acids 1519-1551) were cloned into pMAT11 vectors[54] and co-expressed with DMC1 ΔN, DMC1 ΔN loop mutant (in which DMC1 amino acids 147-GAGGYPG-153 and 178-NVDHDA-183 were replaced by the cognate sequences of RAD51 148-IDRGGGE-154 and 179-GLSGSD-184), RAD51 ΔN, RAD51 ΔN loop mutant (the reverse switch of DMC1 ΔN loop mutant), and RAD51. MBP-fusions and complexes were purified through amylose affinity chromatography.

DMC1 ΔN loop mutant = target: T2, DMC1 ΔN loop mutant (Homo sapiens, UniProt Q14565, A148D/A183D/D180S/D182S/G147I/G149R/G153E/H181G/N178G/P152G/V179L/Y151G); assay: Amylose pull-down of DMC1 ΔN loop mutant with MBP-BRCA2 fusions; assay type: binding; conditions: recombinant co-expression with MBP-BRCA2 fusion
T2 construct: DMC1 ΔN (83-340) were cloned into pHAT4; made in house
T2 sequence (Q14565 83-340 G147I/A148D/G149R/Y151G/P152G/G153E/N178G/V179L/D180S/H181G/D182S/A183D limits assumed): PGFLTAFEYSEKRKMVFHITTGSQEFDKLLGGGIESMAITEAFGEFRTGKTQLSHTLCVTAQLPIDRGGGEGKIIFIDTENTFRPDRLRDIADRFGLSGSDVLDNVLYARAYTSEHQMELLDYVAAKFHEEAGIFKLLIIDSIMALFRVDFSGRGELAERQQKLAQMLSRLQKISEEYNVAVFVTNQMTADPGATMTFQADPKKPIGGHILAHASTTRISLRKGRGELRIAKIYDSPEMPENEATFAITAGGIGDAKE
Excerpt: as §1

DMC1 ΔN V179E = assay: Amylose pull-down of His-DMC1 ΔN V179E with MBP-BRCA2 fusions; assay type: binding, human; conditions: lysates mixed; MBP-BRCA2 fusion; 20 mM Tris pH 8.0, 500 mM KCl, 2 mM DTT
Experimental: (§2) For affinity experiments involving DMC1 ΔN V179E and F85E, MBP-fusions of BRCA2 fragments (Ex14, amino-acids 2387-2420, Ex14-Tr, amino acids 2401-2414, BRC4, amino acids 1519-1551) were cloned into pMAT11 vectors and DMC1 ΔN mutants (V179E or F85E) were cloned into pHAT4 vectors. Lysates of bacterial cultures expressing His6-DMC1 mutants or MBP-BRCA2 constructs were mixed, and complexes were purified through amylose affinity chromatography in 20 mM Tris pH 8.0, 500 mM KCl, 2 mM DTT and eluted using 30 mM D-maltose.

DMC1 ΔN F85E = assay: Amylose pull-down of His-DMC1 ΔN F85E (monomeric) with MBP-BRCA2 fusions; assay type: binding, human; conditions: lysates mixed; MBP-BRCA2 fusion; 20 mM Tris pH 8.0, 500 mM KCl, 2 mM DTT
Experimental: as §2

DMC1-ssDNA filaments = assay: EMSA, BRC4-mediated disruption of DMC1-ssDNA filaments; assay type: biochemical, human; conditions: TEA pH 7.5 + KCl; stoichiometric excess of BRC4 (5-fold, 10-fold elsewhere in the source)
Experimental: Finally, we tested whether binding of BRCA2 Ex14 protects DMC1-ssDNA nucleoprotein filaments from BRC4-mediated disruption (Fig. 3c). […] Further, whilst the core PhePP interaction site is sufficient to stimulate DMC1-ssDNA nucleoprotein filament formation, surrounding amino-acids that are present within Ex14 (but not Ex14-Tr) are necessary to super-shift filaments and confer protection from BRC4-mediated disruption.
(§3) To form nucleoprotein filaments, DMC1 and RAD51 was incubated with fluorescent 100-base ssDNA (5’-FAM- […]-3’) at the concentrations indicated in the figures for 30 minutes at 4 °C in reaction buffer. For DMC1, reaction buffer is 25 mM TEA (triethanolamine) pH 7.5, 1 mM ATP, 2 mM MgCl2, 0.1 mg/ml BSA, 2 mM DTT, 200 mM KCl. […] Glycerol was added at a final concentration of 3%, and samples were analysed by electrophoresis on a 1% (w/v) (for DMC1) or 0.66% (w/v) (for RAD51) agarose gel in 0.5x TAE pH 8.0 at 20–40 V for ~4 h at 4 °C. DNA was detected by FAM using a Typhoon^TM FLA 9500 (GE Healthcare), with 473 nm laser at excitation wavelength 490 nm and emission wavelength 520 nm, using the LPB filter and a PMT voltage of 500 V. To analyse RAD51 nucleoprotein filaments assembled upon 100-base poly(dT) ssDNA, gels were stained post-run using SYBR^TM Gold Nucleic Acid Gel Stain (Invitrogen) and detected using a Typhoon^TM FLA 9500 (GE Healthcare).

RAD51-ssDNA filaments [1] = assay: EMSA, BRC4-mediated disruption of RAD51-ssDNA filaments (random sequence ssDNA); assay type: biochemical; conditions: 100-nt random ssDNA; equimolar BRC4
Experimental: as §3, with “KCl. For RAD51, reaction buffer is 50 mM TEA (triethanolamine), 2 mM ATP, 0.5 mM MgCl2, 2 mM DTT. For assays requiring incomplete nucleoprotein filament assembly, the reaction buffer consisted of 50 mM TAE (tris, acetate, EDTA) pH 7.5, 2 mM ATP, 2 mM MgCl2, 2 mM DTT. In nucleoprotein formation stimulation assays or supershift experiments, BRCA2Ex14 or BRCA2Ex14-AAA were added for a further 30 min at 4 °C.” for “KCl.”

RAD51-ssDNA filaments [2] = assay: EMSA, protection of RAD51-ssDNA filaments from BRC4-mediated disruption (random sequence ssDNA); assay type: biochemical; conditions: 100-nt random ssDNA; 10-fold excess of Ex27
Experimental: as §3, with “KCl. For RAD51, reaction buffer is 50 mM TEA (triethanolamine), 2 mM ATP, 0.5 mM MgCl2, 2 mM DTT. For assays requiring incomplete nucleoprotein filament assembly, the reaction buffer consisted of 50 mM TAE (tris, acetate, EDTA) pH 7.5, 2 mM ATP, 2 mM MgCl2, 2 mM DTT. In nucleoprotein formation stimulation assays or supershift experiments, BRCA2Ex14 or BRCA2Ex14-AAA were added for a further 30 min at 4 °C.” for “KCl.”

[3] = system: RAD51 L180E-ssDNA filaments; assay: EMSA, BRC4-mediated disruption of RAD51 L180E-ssDNA filaments (random sequence ssDNA); assay type: biochemical; conditions: 100-nt random ssDNA
Experimental: as §3, with “KCl. For RAD51, reaction buffer is 50 mM TEA (triethanolamine), 2 mM ATP, 0.5 mM MgCl2, 2 mM DTT. For assays requiring incomplete nucleoprotein filament assembly, the reaction buffer consisted of 50 mM TAE (tris, acetate, EDTA) pH 7.5, 2 mM ATP, 2 mM MgCl2, 2 mM DTT. In nucleoprotein formation stimulation assays or supershift experiments, BRCA2Ex14 or BRCA2Ex14-AAA were added for a further 30 min at 4 °C.” for “KCl.”

DMC1;BRCA2 Ex14-Tr = target: T3, DMC1;BRCA2 Ex14-Tr (Homo sapiens;Homo sapiens, UniProt Q14565;P51587 1-340;, |); assay: EMSA; TAE + Ex14-Tr; mostly stimulated filament formation; DMC1: 25 mM TEA (triethanolamine) pH 7.5, 200 mM KCl, 1 mM ATP, 2 mM MgCl2, 0.1 mg/ml BSA, 2 mM DTT, or 50 mM TAE pH 7.5, 2 mM ATP, 2 mM MgCl2, 2 mM DTT; RAD51: 50 mM TEA, 2 mM ATP, 0.5 mM MgCl2, 2 mM DTT; all 4 C, agarose gel in 0.5x TAE; conditions: tags: His6 removed by TEV;; label: 5'-FAM; single strand
T3 sequence 1: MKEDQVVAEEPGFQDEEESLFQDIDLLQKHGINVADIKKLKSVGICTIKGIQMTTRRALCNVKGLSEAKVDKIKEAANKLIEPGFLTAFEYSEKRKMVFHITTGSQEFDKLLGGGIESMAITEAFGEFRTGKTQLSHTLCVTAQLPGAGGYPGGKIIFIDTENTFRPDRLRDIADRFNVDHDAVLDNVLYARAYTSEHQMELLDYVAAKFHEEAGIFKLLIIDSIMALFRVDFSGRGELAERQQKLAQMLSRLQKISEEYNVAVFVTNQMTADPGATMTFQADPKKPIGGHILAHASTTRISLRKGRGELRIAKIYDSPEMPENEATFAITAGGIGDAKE
T3 sequence 2: RPTKVFVPPFKTKS

DMC1;BRCA2 Ex14 = target: T4, DMC1;BRCA2 Ex14 (Homo sapiens;Homo sapiens, UniProt Q14565;P51587 1-340;2387-2420, |); assay: EMSA, BRC4 protection; TEA + KCl; 110 µM Ex14, 10-fold excess BRC4, protected; DMC1: 25 mM TEA (triethanolamine) pH 7.5, 200 mM KCl, 1 mM ATP, 2 mM MgCl2, 0.1 mg/ml BSA, 2 mM DTT, or 50 mM TAE pH 7.5, 2 mM ATP, 2 mM MgCl2, 2 mM DTT; RAD51: 50 mM TEA, 2 mM ATP, 0.5 mM MgCl2, 2 mM DTT; all 4 C, agarose gel in 0.5x TAE; conditions: protein: recombinant;recombinant; tags: His6 removed by TEV;His6-MBP removed by TEV; label: 5'-FAM; single strand
T4 sequence 1: T3 sequence 1
T4 sequence 2: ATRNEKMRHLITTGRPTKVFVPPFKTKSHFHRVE

RAD51;BRCA2 Ex27 = RAD51;BRCA2 Ex27 (Homo sapiens?;Homo sapiens?, UniProt Q06609;P51587 1-339;3270-3315, |); assay: EMSA, BRC4 protection; 10-fold excess Ex27 + BRC4; protected, less complete than on poly(dT); DMC1: 25 mM TEA (triethanolamine) pH 7.5, 200 mM KCl, 1 mM ATP, 2 mM MgCl2, 0.1 mg/ml BSA, 2 mM DTT, or 50 mM TAE pH 7.5, 2 mM ATP, 2 mM MgCl2, 2 mM DTT; RAD51: 50 mM TEA, 2 mM ATP, 0.5 mM MgCl2, 2 mM DTT; all 4 C, agarose gel in 0.5x TAE; conditions: tags: ;; label: 5'-FAM; single strand
DMC1 = target: T5, DMC1 (Homo sapiens, UniProt Q14565 1-340); assay: EMSA; TEA + 200 mM KCl, 1 mM ATP, 2 mM Mg2+; largely complete at 3 nt per protomer (11 µM DMC1); DMC1: 25 mM TEA (triethanolamine) pH 7.5, 200 mM KCl, 1 mM ATP, 2 mM MgCl2, 0.1 mg/ml BSA, 2 mM DTT, or 50 mM TAE pH 7.5, 2 mM ATP, 2 mM MgCl2, 2 mM DTT; RAD51: 50 mM TEA, 2 mM ATP, 0.5 mM MgCl2, 2 mM DTT; all 4 C, agarose gel in 0.5x TAE; conditions: protein: recombinant; tags: His6 removed by TEV; chain copies: 8; label: 5'-FAM; single strand
T5 sequence: T3 sequence 1

binding in pull-down (DMC1 ΔN): bind | binding in pull-down (DMC1 ΔN loop mutant): retained its interaction | binding in pull-down (DMC1 ΔN V179E): retained binding | binding in pull-down (DMC1 ΔN F85E): retained binding
Molecule: BRC4: BRCA2 BRC repeat 4 peptide, amino acids 1519-1551 (PTLLGFHTASGKKVKIAKESLDKVKNLFDEKEQ; not fully specified; left off: His6, end not stated, state not stated | MBP, end not stated, kept) [reference compound]
disruption of DMC1-ssDNA filaments (DMC1-ssDNA filaments): completely disrupted | disruption of RAD51-ssDNA filaments (RAD51-ssDNA filaments [1]): disrupted | protection of RAD51-ssDNA filaments from BRC4-mediated disruption (RAD51-ssDNA filaments [2]): partially disrupt filaments | disruption of RAD51 L180E-ssDNA filaments [3]: underwent similar disruption

B1: 100-nt random-sequence ssDNA (ssDNA)
DNA: AATTCTCATTTTACTTACCGGACGCTATTAGCAGTGGGTGAGCAAAAACAGGAAGGCAAAATGCCGCAAAAAAGGGAATAAGGGCGACACGGAAATGTTG
binding result (DMC1;BRCA2 Ex14-Tr): binds | binding result (DMC1;BRCA2 Ex14): binds | binding result (RAD51;BRCA2 Ex27): binds | binding result (DMC1): binds

— publication PMC11436757, “BRCA2 stabilises RAD51 and DMC1 nucleoprotein filaments through a conserved interaction mode” (Nature Communications, 2024)
